# Measured values from patent US20210095036A1 (University of Pennsylvania, published 2021).
# Residue numbers refer to the chain shown, from its start.
# T1: GFRα4 isoform a (GFRα4a), Fc fusion with 6 His (human)
# T1 construct: the entry holds the whole fusion; also called GFR4α4a; immobilized GFRα4 isoform a
# T1 chain: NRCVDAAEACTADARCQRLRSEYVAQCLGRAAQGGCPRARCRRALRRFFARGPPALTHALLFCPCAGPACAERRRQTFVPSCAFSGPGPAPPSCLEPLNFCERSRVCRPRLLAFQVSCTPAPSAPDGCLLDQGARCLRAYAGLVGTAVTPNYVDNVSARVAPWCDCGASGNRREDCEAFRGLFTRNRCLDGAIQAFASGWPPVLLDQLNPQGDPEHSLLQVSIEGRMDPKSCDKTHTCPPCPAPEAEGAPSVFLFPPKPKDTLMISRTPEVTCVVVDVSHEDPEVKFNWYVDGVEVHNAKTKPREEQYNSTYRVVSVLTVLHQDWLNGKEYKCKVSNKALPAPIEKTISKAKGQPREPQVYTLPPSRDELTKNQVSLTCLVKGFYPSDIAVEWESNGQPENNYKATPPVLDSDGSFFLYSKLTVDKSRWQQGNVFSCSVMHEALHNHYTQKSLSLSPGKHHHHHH
# B1: 8.H2m1.L2m1 (scFv)
# scFv: QFVLTQPPSASGTPGQRVTISCTLSSAHKTYTIDWYQQLPGTAPKLLIYVKSDGSYTKGTGVPDRFSGSSSGADRYLAISGLQSEDEADYYCGADDNGGYVFGGGTQLTVTGGGSSRSSSSGGGGSGGGGEQSVKESGGGLVQPGGSLRLSCAASGFTLSRHALTWVRQAPGKGLEWIGAIDNAGTTYYASWAKSRFTISRNTDLHTVYLQMNSLRAEDTAVYFCARVFYDINSGYYLDGMDLWGPGTLVTVSS
# notes: pIII not in the entry; order Vλ-linker-VH; The printed entry has an E before QSVKE of the VH; also called scFv 8
# B2: 10.H2.L1m1 (scFv)
# scFv: QFVLTQSPSASASLGASVKLTCTLSSAHKTYTIDWYQQQPEKGPRYLMQVKSDGSYTKGTGVPDRFSGSSSGADRYLTISSLQSEDEADYYCGADDNGGYVFGGGTQLTVTGGGSSRSSSSGGGGSGGGGEVQLVESGGGLVQPGGSLRLSCAASGFTFSRHALTWVRQAPGKGLEWVSAIDNAGTTYYASWAKSRFTISRDNAKNSLYLQMNSLRAEDTAVYYCARVFYDINSGYYLDGMDLWGPGTLVTVSS
# notes: pIII not in the entry; order Vλ-linker-VH; also called scFv 10
# B3: 29.H2.L1m3 (scFv)
# scFv: B2 scFv with F2L
# notes: pIII not in the entry; order Vλ-linker-VH; The printed VL ends TVT; also called scFv 29
# B4: 21.H2.L1m2 (scFv)
# scFv: B2 scFv with Y36H, V62I, D74E, T111L
# notes: pIII not in the entry; order Vλ-linker-VH; also called scFv 21
# B5: 19.H2.L2m2 (scFv)
# scFv: QFVLTQPPSASGTPGQRVTISCTLSSAHKTYTIDWYQQLPGTAPKLLIYVKSDGSYTKGTGVPDRFSGSSSGADASLAISGLQSEDEADYYCGADDNGGYVFGGGTQLTVLGGGSSRSSSSGGGGSGGGGEVQLVESGGGLVQPGGSLRLSCAASGFTFSRHALTWVRQAPGKGLEWVSAIDNAGTTYYASWAKSRFTISRDNAKNSLYLQMNSLRAEDTAVYYCARVFYDINSGYYLDGMDLWGPGTLVTVSS
# notes: pIII not in the entry; order Vλ-linker-VH; also called scFv 19
# B6: 6.H2.L2m1 (scFv)
# scFv: B5 scFv with A75R, S76Y, L111T
# notes: pIII not in the entry; order Vλ-linker-VH; also called scFv 6
# B7: 20.H2.L2m3 (scFv)
# scFv: B5 scFv with F2S, S70K, A73T, D74S
# notes: pIII not in the entry; order Vλ-linker-VH; also called scFv 20
# B8: 4.H1m1.L3m1 (scFv)
# scFv: QFVLTQPASVSGSPGQSITISCTLSSAHKTYTIDWYQQHPGKAPKYLMQVKSDGSYTKGTGVPNRFSGSSSGADRYLTISGLQAEDEADYVCGADDNGGYVFGGGTQLTVTGGGSSRSSSSGGGGSGGGGQQSVKESGPGLVKPSETLSLTCAVSGFSLSRHALTWVRQPPGKGLEWIGAIDNAGTTYYASWAKSRVTISRNTDLHTVSLKLSSVTAADTAVYFCARVFYDINSGYYLDGMDLWGPGTLVTVSS
# notes: pIII not in the entry; order Vλ-linker-VH; also called scFv 4
# B9: 25.H1.L1m3 (scFv)
# scFv: QLVLTQSPSASASLGASVKLTCTLSSAHKTYTIDWYQQQPEKGPRYLMQVKSDGSYTKGTGVPDRFSGSSSGADRYLTISSLQSEDEADYYCGADDNGGYVFGGGTQLTVLGGGSSRSSSSGGGGSGGGGQVQLQESGPGLVKPSETLSLTCAVSGYSISRHALTWIRQPPGKGLEWIGAIDNAGTTYYASWAKSRVTISVDTSKNQFSLKLSSVTAADTAVYYCARVFYDINSGYYLDGMDLWGPGTLVTVSS
# notes: pIII not in the entry; order Vλ-linker-VH; also called scFv 25
# B10: 22.H1.L1m2 (scFv)
# scFv: B9 scFv with L2F, Y36H, V62I, D74E
# notes: pIII not in the entry; order Vλ-linker-VH; also called scFv 22
# B11: 14.H1.L1m1 (scFv)
# scFv: B9 scFv with L2F, L111T
# notes: pIII not in the entry; order Vλ-linker-VH; also called scFv 14
# B12: 26.H1.L1m4 (scFv)
# scFv: B9 scFv with D34A, Y36H
# notes: pIII not in the entry; order Vλ-linker-VH; also called scFv 26
# B13: 24.H2.L3m1 (scFv)
# scFv: QFVLTQPASVSGSPGQSITISCTLSSAHKTYTIDWYQQHPGKAPKYLMQVKSDGSYTKGTGVPNRFSGSSSGADRYLTISGLQAEDEADYVCGADDNGGYVFGGGTQLTVTGGGSSRSSSSGGGGSGGGGEVQLVESGGGLVQPGGSLRLSCAASGFTFSRHALTWVRQAPGKGLEWVSAIDNAGTTYYASWAKSRFTISRDNAKNSLYLQMNSLRAEDTAVYYCARVFYDINSGYYLDGMDLWGPGTLVTVSS
# notes: pIII not in the entry; order Vλ-linker-VH; also called scFv 24
# B14: 28.H1.L3m5 (scFv)
# scFv: QSALTQPASVSGSPGQSITISCTGTSAHKTYTVSWYQQHPGKAPKLMIYVKSDGSYTKGTGVPNRFSGSSSGADRYLTISGLQAEDEADYYCGADDNGGYVFGGGTQLTVLGGGSSRSSSSGGGGSGGGGQVQLQESGPGLVKPSETLSLTCAVSGYSISRHALTWIRQPPGKGLEWIGAIDNAGTTYYASWAKSRVTISVDTSKNQFSLKLSSVTAADTAVYYCARVFYDINSGYYLDGMDLWGPGTLVTVSS
# notes: pIII not in the entry; order Vλ-linker-VH; also called scFv 28
# B15: 17.H1.L3m2 (scFv)
# scFv: B14 scFv with S2F, A3V, G24L, T25S, V33I, S34D, Y49Q, P63S
# notes: pIII not in the entry; order Vλ-linker-VH; also called scFv 17
# B16: 27.H1.L3m4 (scFv)
# scFv: B14 scFv with L46Y, M47L, I48M, Y49Q
# notes: pIII not in the entry; order Vλ-linker-VH; also called scFv 27
# B17: 18.H1.L3m3 (scFv)
# scFv: B14 scFv with V33I, S34D, P63S, S70K, A73N, D74T, R75A, Y76S
# notes: pIII not in the entry; order Vλ-linker-VH; also called scFv 18
# B18: 12.H2m1.L1m1 (scFv)
# scFv: QFVLTQSPSASASLGASVKLTCTLSSAHKTYTIDWYQQQPEKGPRYLMQVKSDGSYTKGTGVPDRFSGSSSGADRYLTISSLQSEDEADYYCGADDNGGYVFGGGTQLTVTGGGSSRSSSSGGGGSGGGGEQSVKESGGGLVQPGGSLRLSCAASGFTLSRHALTWVRQAPGKGLEWIGAIDNAGTTYYASWAKSRFTISRNTDLHTVYLQMNSLRAEDTAVYFCARVFYDINSGYYLDGMDLWGPGTLVTVSS
# notes: pIII not in the entry; order Vλ-linker-VH; The printed entry has an E before QSVKE of the VH; also called scFv 12
# Target: T2, GFRα4 isoform b (GFRα4b), Fc fusion (human)
# T2 construct: the entry holds the whole fusion; also called GFR4α4b; GFRα4-Fc
# Assay: phage ELISA, immobilized GFRα4b; second token of the cell
# Description: (§1) To perform these ELISAs, the GFRα4a isoform comprising a portion of GFRα4a (Asn24 -Ser245, UniProt accession #Q9GZZ7-2) was used, followed by a Factor Xa cleavage site/linker, a portion of optimized IgG1 Fc domain (Pro100-Lys330), and 6 His residues for purification. The GFRα4b isoform comprised a portion of GFRα4b (Asn24-Va1274, UniProt #Q9GZZ7-1), followed by a TEV cleavage site linker, and a portion of human IgG1 Fc domain (Asp104-Lys330).
row,Binder,binding result
1,B1,binds
2,B2,binds
3,B3,binds
4,B4,no binding
5,B5,no binding
6,B6,binds
7,B7,no binding
8,B8,binds
9,B9,binds
10,B10,no binding
11,B11,binds
12,B12,no binding
13,B13,binds
14,B14,no binding
15,B15,binds
16,B16,no binding
17,B17,no binding
18,B18,binds

# Target: T1, GFRα4 isoform a (GFRα4a), Fc fusion …
# Assay: phage ELISA, immobilized GFRα4a; first token of the cell
# Description: as §1
row,Binder,binding result
1,B1,binds
2,B2,binds
3,B3,binds
4,B4,no binding
5,B5,no binding
6,B6,binds
7,B7,no binding
8,B8,binds
9,B9,binds
10,B10,no binding
11,B11,binds
12,B12,no binding
13,B13,binds
14,B14,no binding
15,B16,no binding
16,B17,no binding
17,B18,binds
